IntAct's records for PubMed 17363896

B1: Kexin (Saccharomyces cerevisiae), P13134 (parent)
chain: MKVRKYITLCFWWAFSTSALVSSQQIPLKDHTSRQYFAVESNETLSRLEEMHPNWKYEHDVRGLPNHYVFSKELLKLGKRSSLEELQGDNNDHILSVHDLFPRNDLFKRLPVPAPPMDSSLLPVKEAEDKLSINDPLFERQWHLVNPSFPGSDINVLDLWYNNITGAGVVAAIVDDGLDYENEDLKDNFCAEGSWDFNDNTNLPKPRLSDDYHGTRCAGEIAAKKGNNFCGVGVGYNAKISGIRILSGDITTEDEAASLIYGLDVNDIYSCSWGPADDGRHLQGPSDLVKKALVKGVTEGRDSKGAIYVFASGNGGTRGDNCNYDGYTNSIYSITIGAIDHKDLHPPYSEGCSAVMAVTYSSGSGEYIHSSDINGRCSNSHGGTSAAAPLAAGVYTLLLEANPNLTWRDVQYLSILSAVGLEKNADGDWRDSAMGKKYSHRYGFGKIDAHKLIEMSKTWENVNAQTWFYLPTLYVSQSTNSTEETLESVITISEKSLQDANFKRIEHVTVTVDIDTEIRGTTTVDLISPAGIISNLGVVRPRDVSSEGFKDWTFMSVAHWGENGVGDWKIKVKTTENGHRIDFHSWRLKLFGESIDSSKTETFVFGNDKEEVEPAATESTVSQYSASSTSISISATSTSSISIGVETSAIPQTTTASTDPDSDPNTPKKLSSPRQAMHYFLTIFLIGATFLVLYFMFFMKSRRRIRRSRAETYEFDIIDTDSEYDSTLDNGTSGITEPEEVEDFDFDLSDEDHLASLSSSENGDAEHTIDSVLTNENPFSDPIKQKFPNDANAESASNKLQELQPDVPPSSGRS
partner: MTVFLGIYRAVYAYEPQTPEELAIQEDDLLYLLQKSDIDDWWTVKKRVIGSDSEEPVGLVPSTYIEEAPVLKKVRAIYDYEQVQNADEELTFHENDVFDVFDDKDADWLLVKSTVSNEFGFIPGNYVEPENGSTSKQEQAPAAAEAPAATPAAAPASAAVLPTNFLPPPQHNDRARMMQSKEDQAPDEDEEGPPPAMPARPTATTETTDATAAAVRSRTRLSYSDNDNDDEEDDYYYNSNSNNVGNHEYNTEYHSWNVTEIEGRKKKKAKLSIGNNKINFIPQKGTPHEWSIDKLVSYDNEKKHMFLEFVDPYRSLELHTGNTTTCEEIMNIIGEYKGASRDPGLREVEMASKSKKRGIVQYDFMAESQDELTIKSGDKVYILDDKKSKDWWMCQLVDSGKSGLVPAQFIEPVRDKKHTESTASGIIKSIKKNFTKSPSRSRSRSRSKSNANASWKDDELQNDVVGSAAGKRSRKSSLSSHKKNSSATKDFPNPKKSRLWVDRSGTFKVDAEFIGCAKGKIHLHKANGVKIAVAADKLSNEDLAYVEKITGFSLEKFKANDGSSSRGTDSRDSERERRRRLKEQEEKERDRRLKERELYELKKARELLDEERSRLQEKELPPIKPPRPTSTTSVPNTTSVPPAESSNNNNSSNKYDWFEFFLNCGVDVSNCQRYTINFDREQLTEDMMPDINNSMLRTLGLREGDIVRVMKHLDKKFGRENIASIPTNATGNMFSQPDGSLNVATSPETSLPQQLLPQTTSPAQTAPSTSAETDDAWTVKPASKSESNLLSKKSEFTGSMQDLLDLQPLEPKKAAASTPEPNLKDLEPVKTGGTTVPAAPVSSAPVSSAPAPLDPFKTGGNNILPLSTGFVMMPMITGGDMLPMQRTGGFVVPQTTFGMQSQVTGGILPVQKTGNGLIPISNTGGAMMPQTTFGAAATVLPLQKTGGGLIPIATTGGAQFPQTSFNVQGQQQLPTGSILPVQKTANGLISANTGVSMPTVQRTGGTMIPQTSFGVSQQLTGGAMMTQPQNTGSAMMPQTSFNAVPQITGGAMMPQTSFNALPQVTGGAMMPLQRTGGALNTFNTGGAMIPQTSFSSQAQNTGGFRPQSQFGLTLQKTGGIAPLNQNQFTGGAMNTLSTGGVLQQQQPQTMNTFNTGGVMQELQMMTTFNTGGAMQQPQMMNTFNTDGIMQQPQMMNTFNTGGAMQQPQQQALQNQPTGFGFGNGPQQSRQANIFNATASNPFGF
B2: Actin cytoskeleton-regulatory complex protein SLA1 (Saccharomyces cerevisiae), P32790 (parent)
chain: B1 partner
partner: B1 chain

Variants of: B1
Details: with sla1_yeast SLA1, P32790

| effect of a mutation on the interaction | Variant |
| --- | --- |
| decreasing interaction | D781A |

Variants of: B1
Details: with sla1_yeast SLA1, P32790
Remark: another data set of the same source

| effect of a mutation on the interaction | Variant |
| --- | --- |
| disrupting interaction | F779A |

Variants of: B2
Details: with kex2_yeast KEX2, P13134

| effect of a mutation on the interaction | Variant |
| --- | --- |
| disrupting interaction | K525A |

Variants of: B2
Details: with kex2_yeast KEX2, P13134
Remark: another data set of the same source

| effect of a mutation on the interaction | Variant |
| --- | --- |
| decreasing interaction | K525A |

Variants of: B2
Details: with kex2_yeast KEX2, P13134
Remark: another data set of the same source

| effect of a mutation on the interaction | Variant |
| --- | --- |
| disrupting interaction | V529E |

Variants of: B2
Details: with kex2_yeast KEX2, P13134
Remark: another data set of the same source

| effect of a mutation on the interaction | Variant |
| --- | --- |
| decreasing interaction | V529E |

Variants of: B2
Details: with kex2_yeast KEX2, P13134
Remark: another data set of the same source

| effect of a mutation on the interaction | Variant |
| --- | --- |
| disrupting interaction | I531E |

Variants of: B2
Details: with kex2_yeast KEX2, P13134
Remark: another data set of the same source

| effect of a mutation on the interaction | Variant |
| --- | --- |
| disrupting interaction | F507A |
